Experimental data as given in patent US12338277.

Tests used:
Assay in all cases: cell-based or functional assay
[1] = molecular target: HIV-1 envelope of pseudovirus WEAU_d15_410_787 (HIV-1)
[2] = molecular target: HIV-1 envelope of pseudovirus 6535.3 (HIV-1)
[3] = molecular target: HIV-1 Env of pseudovirus C3347.c11 (HIV-1)
[4] = molecular target: HIV-1 envelope of pseudovirus T250-4 (HIV-1)
[5] = molecular target: HIV-1 Env of pseudovirus THRO4156.18 (HIV-1)
[6] = molecular target: HIV-1 Env of pseudovirus Q451.e2 (HIV-1)
[7] = molecular target: HIV-1 Env of pseudovirus 263-8 (HIV-1)
[8] = molecular target: HIV-1 envelope of pseudovirus HIV-0013095-2.11 (HIV-1)
[9] = molecular target: HIV-1 Env of pseudovirus 6811.v7.c18 (HIV-1)
[10] = molecular target: HIV-1 Env of pseudovirus 3415.v1.c1 (HIV-1)
[11] = molecular target: HIV-1 Env of pseudovirus BJOX015000.11.5 (HIV-1)
[12] = molecular target: HIV-1 envelope of pseudovirus 7030102001E5(Rev-) (HIV-1)
[13] = molecular target: HIV-1 envelope of pseudovirus 6041.v3.c23 (HIV-1)
[14] = molecular target: HIV-1 envelope spike of pseudovirus BaL.26 (HIV-1)
[15] = molecular target: HIV-1 Env of pseudovirus BJOX025000.01.1 (HIV-1)
[16] = molecular target: HIV-1 Env of pseudovirus 62357_14_03_4589 (HIV-1)
[17] = molecular target: HIV-1 Env of pseudovirus T251-18 (HIV-1)
[18] = molecular target: HIV-1 Env of pseudovirus Q769.d22 (HIV-1)
[19] = molecular target: HIV-1 envelope of pseudovirus 89-F1_2_25 (HIV-1)
[20] = molecular target: HIV-1 Env of pseudovirus R2184.c04 (HIV-1)
[21] = molecular target: HIV-1 envelope of pseudovirus 6545.v4.c1 (HIV-1)
[22] = molecular target: HIV-1 Env of pseudovirus T255-34 (HIV-1)
[23] = molecular target: HIV-1 envelope of pseudovirus ZM249M.PL1 (HIV-1)
[24] = molecular target: HIV-1 envelope of pseudovirus 235-47 (HIV-1)
[25] = molecular target: HIV-1 Env of pseudovirus Ce1086_B2 (HIV-1)
[26] = molecular target: HIV-1 envelope of pseudovirus 9004SS_A3_4 (HIV-1)
[27] = molecular target: HIV-1 Env of pseudovirus 1394C9G1(Rev-) (HIV-1)
[28] = molecular target: Murine leukemia virus (MuLV) envelope on pseudovirus (Murine leukemia virus)
[29] = molecular target: HIV-1 Env of pseudovirus Ce704809221_1B3 (HIV-1)
[30] = molecular target: HIV-1 envelope of pseudovirus ZM135M.PL10a (HIV-1)
[31] = molecular target: HIV-1 Env of pseudovirus Ce0393_C3 (HIV-1)
[32] = molecular target: HIV-1 envelope spike of pseudovirus CAAN5342.A2 (HIV-1)
[33] = molecular target: HIV-1 envelope of pseudovirus CNE52 (HIV-1)
[34] = molecular target: HIV-1 Env of pseudovirus WITO4160.33 (HIV-1)
[35] = molecular target: HIV-1 envelope of pseudovirus CNE21 (HIV-1)
[36] = molecular target: HIV-1 Env of pseudovirus CNE19 (HIV-1)
[37] = molecular target: HIV-1 envelope of pseudovirus 6240_08_TA5_4622 (HIV-1)
[38] = molecular target: HIV-1 envelope of pseudovirus Q23.17 (HIV-1)
[39] = molecular target: HIV-1 envelope of pseudovirus SC422661.8 (HIV-1)
[40] = molecular target: HIV-1 Env of pseudovirus CNE21 (HIV-1)
[41] = molecular target: HIV-1 Env of pseudovirus Du422.1 (HIV-1)
[42] = molecular target: HIV-1 Env of pseudovirus WEAU_d15_410_787 (HIV-1)
[43] = molecular target: HIV-1 envelope of pseudovirus Ce1176_A3 (HIV-1)
[44] = molecular target: HIV-1 envelope of pseudovirus Ce703010054_2A2 (HIV-1)
[45] = molecular target: HIV-1 envelope spike of pseudovirus 6535.3 (HIV-1)
[46] = molecular target: HIV-1 Env of pseudovirus AC10.0.29 (HIV-1)
[47] = molecular target: HIV-1 envelope of pseudovirus 62357_14_03_4589 (HIV-1)
[48] = molecular target: HIV-1 Env of pseudovirus CNE52 (HIV-1)
[49] = molecular target: HIV-1 Env of pseudovirus X1193_c1 (HIV-1)
[50] = molecular target: HIV-1 Env of pseudovirus PVO.4 (HIV-1)

Sequence of 10-996 (antibody) (VH): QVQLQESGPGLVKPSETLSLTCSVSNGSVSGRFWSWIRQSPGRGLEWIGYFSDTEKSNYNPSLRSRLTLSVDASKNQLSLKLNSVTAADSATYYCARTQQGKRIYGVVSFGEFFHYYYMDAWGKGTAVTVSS
Sequence of 10-996 (antibody) (VL): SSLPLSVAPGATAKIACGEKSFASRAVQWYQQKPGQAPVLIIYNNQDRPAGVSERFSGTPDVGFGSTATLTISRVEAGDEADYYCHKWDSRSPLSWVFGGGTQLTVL

10-996 (antibody) was tested, and the IC50 (TZM-bl neutralization) [1] was 0.147 µg/mL, the IC50 (TZM-bl neutralization) [2] was 0.017 µg/mL and the IC80 (TZM-bl neutralization) [3] was greater than 50 µg/mL. The IC50 (TZM-bl neutralization) [4] was less than 0.001 µg/mL, the IC80 (TZM-bl neutralization) [5] was greater than 50 µg/mL and the IC80 (TZM-bl neutralization) [6] was greater than 50 µg/mL. The IC80 (TZM-bl neutralization) [7] was greater than 50 µg/mL, the IC50 (TZM-bl neutralization) [8] was 31.5 µg/mL and the IC80 (TZM-bl neutralization) [9] was 0.011 µg/mL. It also gave an IC80 (TZM-bl neutralization) [10] greater than 50 µg/mL, an IC80 (TZM-bl neutralization) [11] greater than 50 µg/mL and an IC50 (TZM-bl neutralization) [12] of 0.013 µg/mL. For the same substance, the IC50 (TZM-bl neutralization) [13] was greater than 50 µg/mL, the IC50 (TZM-bl neutralization assay) [14] was 0.045 µg/mL and the IC80 (TZM-bl neutralization assay) [14] was 0.228 µg/mL. For the same substance, the IC80 (TZM-bl neutralization) [15] was greater than 50 µg/mL, the IC80 (TZM-bl neutralization) [16] was greater than 50 µg/mL and the IC80 (TZM-bl neutralization) [17] was 7.4 µg/mL. For the same substance, the IC80 (TZM-bl neutralization) [18] was greater than 50 µg/mL, the IC50 (TZM-bl neutralization) [19] was greater than 50 µg/mL and the IC80 (TZM-bl neutralization) [20] was greater than 50 µg/mL. It also gave an IC50 (TZM-bl neutralization) [21] greater than 50 µg/mL, an IC80 (TZM-bl neutralization) [22] greater than 50 µg/mL and an IC50 (TZM-bl neutralization) [23] greater than 50 µg/mL. The IC50 (TZM-bl neutralization) [24] was 0.128 µg/mL, the IC80 (TZM-bl neutralization) [25] was greater than 50 µg/mL and the IC50 (TZM-bl neutralization) [26] was 0.012 µg/mL. It also gave an IC80 (TZM-bl neutralization) [27] of 0.328 µg/mL, an IC50 (TZM-bl neutralization assay) [28] greater than 40 µg/mL and an IC80 (TZM-bl neutralization assay) [28] greater than 40 µg/mL. It also gave an IC80 (TZM-bl neutralization) [29] of 1.21 µg/mL, an IC50 (TZM-bl neutralization) [30] of 0.099 µg/mL and an IC80 (TZM-bl neutralization) [31] greater than 50 µg/mL. The IC50 (TZM-bl neutralization assay) [32] was 0.007 µg/mL, the IC80 (TZM-bl neutralization assay) [32] was 0.06 µg/mL and the IC50 (TZM-bl neutralization) [33] was 4.53 µg/mL. It also gave an IC80 (TZM-bl neutralization) [34] of 6.48 µg/mL, an IC50 (TZM-bl neutralization) [35] of 0.086 µg/mL and an IC80 (TZM-bl neutralization) [36] greater than 50 µg/mL. It also gave an IC50 (TZM-bl neutralization) [37] of 0.095 µg/mL, an IC50 (TZM-bl neutralization) [38] of 0.008 µg/mL and an IC50 (TZM-bl neutralization) [39] of 0.173 µg/mL. The IC80 (TZM-bl neutralization) [40] was 0.255 µg/mL, the IC80 (TZM-bl neutralization) [41] was 0.215 µg/mL and the IC80 (TZM-bl neutralization) [42] was 0.422 µg/mL. It also gave an IC50 (TZM-bl neutralization) [43] of 0.043 µg/mL, an IC50 (TZM-bl neutralization) [44] greater than 50 µg/mL and an IC50 (TZM-bl neutralization assay) [45] of 0.018 µg/mL. For the same substance, the IC80 (TZM-bl neutralization assay) [45] was 0.085 µg/mL, the IC80 (TZM-bl neutralization) [46] was 0.25 µg/mL and the IC50 (TZM-bl neutralization) [47] was 29.3 µg/mL. The IC80 (TZM-bl neutralization) [48] was 43.8 µg/mL, the IC80 (TZM-bl neutralization) [49] was 0.482 µg/mL and the IC80 (TZM-bl neutralization) [50] was 0.952 µg/mL.
